According to publication doi:10.1101/2021.05.30.446358:

Biological target: LH1 αβ-polypeptide pair of Rhodospirillum rubrum (Rhodospirillum rubrum) (UniProt P02947)
Test: cryo-EM structure

## LH1 αβ-polypeptide pair of Rhodospirillum rubrum (from UniProt P02947 1-52; P02950 1-49) (complex)
  stoichiometry N: 16
